Assay results: patent publication US20190062438A1 (CSL, published 2019)
Numbering of substitutions follows the chain as printed.

Legend:
Experiment in all cases: SPR, steady state, Fab over captured mutant
shCD131 G423A = molecular target: T1, shCD131 G423A (human, UniProt P32927 17-438)
T1 construct: C-terminal 6xHis
T1 sequence: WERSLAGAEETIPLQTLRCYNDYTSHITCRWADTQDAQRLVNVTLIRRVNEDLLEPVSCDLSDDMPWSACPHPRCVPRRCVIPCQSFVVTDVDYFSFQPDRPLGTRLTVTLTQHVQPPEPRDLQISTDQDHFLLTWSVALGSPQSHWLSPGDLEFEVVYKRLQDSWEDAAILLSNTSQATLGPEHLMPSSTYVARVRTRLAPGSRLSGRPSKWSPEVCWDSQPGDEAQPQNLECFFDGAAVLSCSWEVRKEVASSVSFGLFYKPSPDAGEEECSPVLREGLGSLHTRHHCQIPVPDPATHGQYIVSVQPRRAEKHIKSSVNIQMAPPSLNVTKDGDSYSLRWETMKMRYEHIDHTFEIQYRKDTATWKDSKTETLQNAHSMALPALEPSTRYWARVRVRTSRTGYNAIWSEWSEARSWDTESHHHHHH
Description: (§1) For some analysis purified Fab was injected over each flow cell for 3 minutes and dissociation was monitored for a further 10 minutes. Regeneration of the surface was performed after each cycle with a 40 second injection of 25 mM glycine, pH 2.0. The analysis was performed with Fabs at several concentrations between 100 and 0.31 nM, with each concentration analyzed twice and in random order. The analysis was performed at a flow rate of 30 μl/min in HBS-EP buffer (10 mM Hepes, 150 mM NaCl, 3 mM EDTA, 0.005% Tween 20, pH 7.4) at 37° C. Responses from spots 2 and 4 of each flow cell, (in which shβc was not captured, but otherwise treated identically), were subtracted from those of spots 1 and 5 respectively to produce reference subtracted data. Reference subtracted responses from a blank injection comprising buffer alone were subtracted from the resultant sensorgrams to produce double referenced data suitable for kinetic analysis. Double-referenced sensorgrams were fitted using non-linear regression to a model describing 1:1 kinetics, including a term for mass transport limitation. The Rₘₐₓ value was fitted locally to account for slight deviations in the level of sCD131 captured, with association rate (kₐ), dissociation rate (kd) and equilibrium dissociation constant (KD) fitted globally.
(§2) Mapping of the shCD131 epitope was performed by measurement of the affinity of Fabs for various alanine point mutants of shCD131 essentially as described above, with the following exceptions. Each shCD131 mutant was captured for 120 seconds at concentrations between 1 and 5 μg/ml. For kinetic analysis, purified recombinant Fabs were injected for 2 minutes, and dissociation was monitored for a further 2 minutes. […] Fab concentrations ranged from 16 μM to 3.9 nM in two-fold dilutions. The assays were conducted at 25° C. All sensorgrams were reference subtracted as described above. For determination of steady-state affinity (KD only), the response at the end of the binding phase was used to fit the data to a single-site binding model. Kinetic parameters were determined as described above.

shCD131 M340A = molecular target: T2, shCD131 M340A (human, UniProt P32927 17-438)
T2 construct: C-terminal 6xHis
T2 sequence: T1 sequence with M324A, A407G
Description: as §1, §2

shCD131 T40A = molecular target: T3, shCD131 T40A (human, UniProt P32927 17-438)
T3 construct: C-terminal 6xHis
T3 sequence: T1 sequence with T24A, A407G
Description: as §1, §2

shCD131 N37A = molecular target: T4, shCD131 N37A (human, UniProt P32927 17-438)
T4 construct: C-terminal 6xHis
T4 sequence: T1 sequence with N21A, A407G
Description: as §1, §2

Kd (shCD131 G423A): 197 nM
Kd (shCD131 M340A): 235 nM
Kd (shCD131 T40A): 236 nM
Kd (shCD131 N37A): 620 nM
B1: 9A2 Fab (Fab, V domains shown)
VH: EVQLLESGGGLVQPGGSLRLSCAASGFTFSHYHMLWVRQAPGKGLEWVSSIRSSGGFTYYADSVKGRFTISRDNSKNTLYLQMNSLRAEDTAVYYCARFYDSFFDIWGQGTMVTVSS
VL: DIQMTQSPSSVSASVGDRVTITCRASQGISSWLAWYQQKPGKAPKLLIYAASSLQSGVPSRFSGSGSGTDFTLTISSLQPEDFATYYCQQANSFPITFGQGTRLEIKR
notes: also called recombinant Fab of 9A2
